± gives the standard error. Variants at the floor of the assay were thinned out.
B1: glmS ribozyme (parent)
chain: AUAAAAGCGCCAGAACUACAGAAAUGUAGUUGACGAGGAGGAGGUUUAUCGAAUUUUCGGCGGAUGCCUCCAAA

Legend:
Conditions in all cases: with glucosamine-6-phosphate
glucosamine-6-phosphate [1] = variants of: B1; assay: self-cleavage kobs at 640 uM GlcN6P; higher = faster cleavage; RNA array
How it was run: (§1)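 Barcoded ribozyme variants were transcribed in situ on sequenced MiSeq chips by E. coli RNA polymerase. At 37 °C, a hybridised Cy3 probe tracked them while glucosamine-6-phosphate (40 μM to 10 mM) in HEPES/KCl/Mg(OAc)2 buffer flowed in and tiles were imaged over ~14 h. Per-tile medians of signals normalised to baseline and to non-cleaving reference variants were fit to one- or two-exponential decays, giving kobs. kcat and KM came from weighted Michaelis–Menten fits across concentrations.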

glucosamine-6-phosphate [2] = variants of: B1; assay: self-cleavage kobs at 2500 uM GlcN6P; higher = faster cleavage; RNA array
How it was run: as §1

glucosamine-6-phosphate [3] = variants of: B1; assay: self-cleavage kobs at 10000 uM GlcN6P; higher = faster cleavage; RNA array
How it was run: as §1

Row | Variant | self-cleavage kobs at 640 uM GlcN6P (glucosamine-6-phosphate [1]) | self-cleavage kobs at 2500 uM GlcN6P (glucosamine-6-phosphate [2]) | self-cleavage kobs at 10000 uM GlcN6P (glucosamine-6-phosphate [3])
1 | A39C G43A G66A | < 1e-05 s⁻¹ | – | –
2 | C34U A64U G66C | < 1e-05 s⁻¹ | – | –
3 | A42C C61U C68G C71U | < 1e-05 s⁻¹ | – | –
4 | G35A A39G C61U | < 1e-05 s⁻¹ | < 1e-05 s⁻¹ | –
5 | G38U C67U C70U | 0.000296 ± 0.00014 s⁻¹ | – | –
6 | A42C U47G U57C | < 1e-05 s⁻¹ | < 1e-05 s⁻¹ | –
7 | C34G A42C A52U C58U U65G | < 1e-05 s⁻¹ | < 1e-05 s⁻¹ | –
8 | A36C G41A C50G C58G | < 1e-05 s⁻¹ | – | –
9 | A33G A36C U54C | < 1e-05 s⁻¹ | < 1e-05 s⁻¹ | < 1e-05 s⁻¹
10 | A33G A52G U65G | < 1e-05 s⁻¹ | < 1e-05 s⁻¹ | –
11 | U31G G62A | < 1e-05 s⁻¹ | – | –
12 | G35U G59U G60C G62U | < 1e-05 s⁻¹ | – | –
13 | A36U A53G C58U C67G C70A | 0.000184 ± 4.8e-05 s⁻¹ | 0.00115 ± 0.00026 s⁻¹ | –
14 | G35C G40U A52U G63U | < 1e-05 s⁻¹ | < 1e-05 s⁻¹ | –
15 | A33C G41A A53U | < 1e-05 s⁻¹ | – | –
16 | G35C A48G A53U U69C | < 1e-05 s⁻¹ | – | –
17 | A39U U46G C50U U54C | < 1e-05 s⁻¹ | – | –

Row | Variant | self-cleavage kobs at 640 uM GlcN6P (glucosamine-6-phosphate [1]) | self-cleavage kobs at 2500 uM GlcN6P (glucosamine-6-phosphate [2]) | self-cleavage kobs at 10000 uM GlcN6P (glucosamine-6-phosphate [3])
18 | G38C G40U U46A | < 1e-05 s⁻¹ | – | –
19 | G40U U46C A53U | 0.000351 ± 0.00012 s⁻¹ | – | 0.000745 ± 0.00019 s⁻¹
20 | C34A G38U U54A | < 1e-05 s⁻¹ | < 1e-05 s⁻¹ | –
21 | C34U U69G C71U | 0.000948 ± 0.00043 s⁻¹ | 6.74e-05 ± 3.3e-05 s⁻¹ | –
22 | G35U G51A G63A C67A | < 1e-05 s⁻¹ | < 1e-05 s⁻¹ | –
23 | G38U G43U U46A A48U C61A C67G | < 1e-05 s⁻¹ | – | –
24 | G37C G62C G63C C67U | < 1e-05 s⁻¹ | – | –
25 | C34U U46G C68G | 0.000568 ± 0.00025 s⁻¹ | < 1e-05 s⁻¹ | –
26 | G37A U49A G66A | < 1e-05 s⁻¹ | – | –
27 | A36G G51C C71G | < 1e-05 s⁻¹ | < 1e-05 s⁻¹ | –
28 | A36U U46C C50U C58U G59C C67A | < 1e-05 s⁻¹ | – | –
29 | G38A G43U G51C | < 1e-05 s⁻¹ | < 1e-05 s⁻¹ | –
30 | C34G G44U C50U C71U | < 1e-05 s⁻¹ | < 1e-05 s⁻¹ | –
31 | A33G G38U U49C C71U | < 1e-05 s⁻¹ | < 1e-05 s⁻¹ | –
32 | G40A G41A C71A | 6.52e-05 ± 1.3e-05 s⁻¹ | 9.76e-05 ± 1.9e-05 s⁻¹ | –
33 | A42C C61G C70A | < 1e-05 s⁻¹ | < 1e-05 s⁻¹ | < 1e-05 s⁻¹
